According to patent publication US8088892B2, “Inhibitors of proteins from the Rho-GEF family” (Centre National de la Recherche Scientifique (C.N.R.S.), priority 2002, dated 2012):

Tests used:
Type in all cases: biochemical
TrioGEFD1 = target: T1, TrioGEFD1 (Homo sapiens, UniProt O75962); assay: In vitro GEF assay on RhoG; parameters: key to in vitro GEF assay (inhibition): +++^2 and +^2 represent respectively a full and a partial (see FIG. 3) inhibitory effect; +++^2 and +^2 represent respectively a full and a partial (see FIG. 3) inhibitory effect; −−^2 represents a lack of inhibitory effect; details: for Effect on TrioGEFD1 exchange activity on RhoG: 20-fold molar excess, TrioGEFD1 0.1 μM, RhoG 0.3 μM
T1 construct: TrioGEFD1 (a.a. 1232-1629, 0.1 μM); made in house
Experimental: To test the specificity of TRIAPα inhibition in vitro, exchange experiments were performed either on RhoA with different RhoA-specific GEFs: Trio GEFD2 (0.4 μM), Kalirin GEFD2 (KalGEFD2, 1.7 μM), p63RhoGEF (Souchet et al., 2002) (0.4 μM) and Lbc (amino acids 172-598; Zheng et al., 1995) (0.4 μM), or on RhoG, with the RhoG-specific GEF domain of Trio (TrioGEFD1, 0.1 μM). Exchange assays were performed with the recombinant GEFs as described in FIG. 2A. Different concentrations of RhoGEFs were used to yield a similar nucleotide exchange efficiency. For each exchange factor, three independent experiments were done in absence (black bar) or in the presence (grey bar) of a 20-fold molar excess of TRIAPα.
(§1) An in vitro guanine nucleotide exchange (GEF) assay was used to test whether the TrioGEFD2-binding aptamers could inhibit the catalytic activity of TrioGEFD2 towards RhoA. For this purpose, the aptamers TRIAPα, TRIAPβ and TRIAPγ (including the Trx gene) were excised from pEG202 as EcoRI/NotI fragments and cloned into pGEX4T1 EcoRI/NotI. The aptamers were then expressed and purified from bacteria as GST fusion proteins, using standard procedures (Smith and Johnson, 1988). GTPase-GST fusion proteins were prepared, loaded with [^3H]GDP and the guanine nucleotide release assays were performed as described (Debant et al., 1996), using recombinant GST-TrioGEFD2 (a.a. 1848-2298), TrioDH2 (a.a. 1848-2096). For each point, 0.3 μM GTPase was mixed with or without 0.4 μM GEF in presence of non-labeled GTP, and the reaction mix was filtered after 0 min and 15 mm reaction at 25° C. The catalytic activity of TrioGEFD2 was thus measured by the decrease of the GTPase-associated radioactivity. The results are expressed as the ratio “exchange after 15 min over exchange after 0 min” (% bound [^3H]GDP-RhoA). To measure the effect of the aptamers on the exchange activity, a 20-fold molar excess of GST-TRIAPs was pre-incubated with GEFD2 (or GEFD1) for 30 min on ice before the exchange assay was carried out. For each experiment, data were obtained in triplicate. […]

Dbl = target: T2, Dbl (Homo sapiens, UniProt P10911); assay: In vitro GEF assay on RhoA; parameters: key to in vitro GEF assay (inhibition): +++^2 and +^2 represent respectively a full and a partial (see FIG. 3) inhibitory effect; +++^2 and +^2 represent respectively a full and a partial (see FIG. 3) inhibitory effect; −−^2 represents a lack of inhibitory effect
T2 construct: made in house
T2 sequence (P10911 495-826): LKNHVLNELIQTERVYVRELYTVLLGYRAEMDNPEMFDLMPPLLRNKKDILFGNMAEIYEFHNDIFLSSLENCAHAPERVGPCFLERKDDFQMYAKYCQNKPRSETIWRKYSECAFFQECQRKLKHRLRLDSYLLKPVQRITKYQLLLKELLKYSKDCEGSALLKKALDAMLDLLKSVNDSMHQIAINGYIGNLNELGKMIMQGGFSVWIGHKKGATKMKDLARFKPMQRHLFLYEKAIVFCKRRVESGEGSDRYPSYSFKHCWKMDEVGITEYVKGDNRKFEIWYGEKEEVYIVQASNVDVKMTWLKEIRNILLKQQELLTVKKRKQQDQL
Source text: as §1

TrioDH2 = target: T3, TrioDH2 (Homo sapiens, UniProt O75962); assay: In vitro GEF assay on RhoA; details: 20-fold molar excess (8 μM) aptamer, 0.4 μM GST-DH2
T3 construct: TrioDH2 (a.a. 1848-2096); made in house
Experimental: A 20-fold molar excess (8 μM) of GST-aptamers TRIAPα, TRIAPβ (another TrioGEFD2 binding aptamer), TRIAPγ (another TrioGEFD2 binding aptamer) or the empty thioredoxine (Trx) were pre-incubated with 0.4 μM GST-GEFD2 (left side of FIG. 2A) or 0.4 μM GST-DH2 (right side of FIG. 2A), as indicated, before adding 0.3 μM of [^3H]GDP loaded GST-RhoA. The exchange activity was monitored by the decrease of [^3H]GDP bound-RhoA after 15 min (see Materials and Methods). The amount of [^3H]GDP bound-RhoA incubated without GEF (first bar on the left) was defined as 100% The values and errors bars were calculated from at least three independent experiments.
An in vitro guanine nucleotide exchange (GEF) assay was used to test whether the TrioGEFD2-binding aptamers could inhibit the catalytic activity of TrioGEFD2 towards RhoA. For this purpose, the aptamers TRIAPα, TRIAPβ and TRIAPγ (including the Trx gene) were excised from pEG202 as EcoRI/NotI fragments and cloned into pGEX4T1 EcoRI/NotI. The aptamers were then expressed and purified from bacteria as GST fusion proteins, using standard procedures (Smith and Johnson, 1988). […] The catalytic activity of TrioGEFD2 was thus measured by the decrease of the GTPase-associated radioactivity. The results are expressed as the ratio “exchange after 15 min over exchange after 0 min” (% bound [^3H]GDP-RhoA). […]

B1: TRIAPα: aptamer of 154 amino acids: variable region of 42 amino acids inserted into the thioredoxin protein; tested as GST fusion (protein)
chain: MSDKIIHLTDDSFDTDVLKADGAILVDFWAEWCGPAREGADGAICGYNLATLVMLGPSERVFCPLCEPCSSDIYELMGPCKMIAPILDEIADEYQGKLTVAKLNIDQNPGTAPKYGIRGIPTLLLFKNGEVASATKVGALSKGQLKEFLDANLA
Effect on TrioGEFD1 exchange activity on RhoG (TrioGEFD1): has no effect | Effect on TrioGEFD1 exchange activity on RhoG (TrioGEFD1; listed as GST-TRIAPα): did not block | in vitro GEF assay (inhibition) (TrioGEFD1; RhoGEF TrioDH1PH1): −−^2 | in vitro GEF assay (inhibition) (Dbl; RhoGEF Dbl): −−^2 | Effect on Dbl exchange activity (Dbl; data not shown): not affected | Inhibition of TrioDH2 exchange activity on RhoA in vitro (TrioDH2): inhibits | Inhibition of TrioDH2 exchange activity on RhoA in vitro (TrioDH2; listed as GST-TRIAPα): inhibited both TrioGEFD2 and TrioDH2 exchange activities
